Source: patent US20130174288A1 (PIERRE FABRE MEDICAMENT, published 2013)
Numbering of substitutions follows the chain as printed. Names may count otherwise.

B1: anti-CXCR4 Mab 515H7 (murine monoclonal antibody) (antibody, V domains shown)
VH: EVNLVESGGGLVQPGGSLRLSCATSGFTFTDNYMSWVRQPPGKALEWLGFIRNKANGYTTDYSASVRGRFTISRDNSQSILYLQMNALRAEDSATYYCARDVGSNYFDYWGQGTTLTVSS
VL: DIVMSQSPSSLAVSAGEKVTMSCKSSQSLFNSRTRKNYLAWYQQKPGQSPKLLIYWASARDSGVPARFTGSGSETYFTLTISRVQAEDLAVYYCMQSFNLRTFGGGTKLEIK
B2: anti-CXCR4 chimeric Mab c515H7 (antibody, V domains shown)
VH: B1 VH
VL: B1 VL
B3: anti-CXCR4 Mab 301aE5 (murine monoclonal antibody) (antibody, V domains shown)
VH: QVQLKESGPGLVAPSQSLSITCTVSGFSLTDYGVYWVRQPPGKGLEWLGMIWGDGTTDYNSALKSRLSISKDNSKSQVFLKMNTLQTDDTARYYCARGRQFGFDYWGQGTTLTVSS
VL: B1 VL with S22R, Y55F, A59I, D61E, A66D, E74G, Y76D, R83S, M95K, F98Y
B4: humanized Mab hz515H7 VH1 D76N VL2 (antibody, V domains shown)
VH: EVQLVESGGGLVQPGRSLRLSCTASGFTFTDNYMSWVRQAPGKGLEWVGFIRNKANGYTTEYAASVKGRFTISRDNSKSIAYLQMNSLKTEDTAVYYCARDVGSNYFDYWGQGTLVTVSS
VL: B1 VL with S5T, A15L, K18R, V19A, G105Q, L109V
B5: humanized Mab hz515H7 VH1 D76N VL2.1 (antibody, V domains shown)
VH: B4 VH
VL: B1 VL with S5T, S9D, A15L, K18R, V19A, S49P, A66D, T69S, G105Q, L109V
B6: humanized Mab hz515H7 VH1 D76N VL2.2 (antibody, V domains shown)
VH: B4 VH
VL: B1 VL with S5T, S9D, A15L, K18R, V19A, S49P, A66D, L89V, G105Q, L109V
B7: humanized Mab hz515H7 VH1 D76N VL2.3 (antibody, V domains shown)
VH: B4 VH
VL: DIVMTQSPDSLAVSLGERATMSCKSSQSLFNSRTRKNYLAWYQQKPGQPPKLLIYWASARDSGVPDRFTGSGSETYFTLTISSLQAEDLAVYYCMQSFNLRTFGQGTKVEIK

molecular target: CCR5 on GHOST cells expressing CD4 and CCR5 (UniProt P51681 1-352, limits assumed); assay: cell-based or functional assay
Sequence (P51681 whole entry): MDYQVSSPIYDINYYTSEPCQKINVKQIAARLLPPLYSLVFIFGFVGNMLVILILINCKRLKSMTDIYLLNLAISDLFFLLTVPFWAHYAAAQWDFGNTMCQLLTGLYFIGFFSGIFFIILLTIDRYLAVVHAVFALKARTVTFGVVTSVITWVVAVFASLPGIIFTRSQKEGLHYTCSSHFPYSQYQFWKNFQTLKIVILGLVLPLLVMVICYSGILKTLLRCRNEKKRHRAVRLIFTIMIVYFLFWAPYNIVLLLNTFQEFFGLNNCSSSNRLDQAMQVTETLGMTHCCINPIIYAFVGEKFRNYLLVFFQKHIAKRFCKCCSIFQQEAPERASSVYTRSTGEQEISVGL

Binder | IC50 (µg/ml), % inhibition of infected cells, GHOST CCR5 / R5 HIV-1 BaL virus [µg/mL]
B1 | > 75

molecular target: T1, human CXCR4 (hCXCR4), expressed on cells (human, UniProt P61073 1-352); assay: cell-based or functional assay
T1 sequence (P61073 whole entry): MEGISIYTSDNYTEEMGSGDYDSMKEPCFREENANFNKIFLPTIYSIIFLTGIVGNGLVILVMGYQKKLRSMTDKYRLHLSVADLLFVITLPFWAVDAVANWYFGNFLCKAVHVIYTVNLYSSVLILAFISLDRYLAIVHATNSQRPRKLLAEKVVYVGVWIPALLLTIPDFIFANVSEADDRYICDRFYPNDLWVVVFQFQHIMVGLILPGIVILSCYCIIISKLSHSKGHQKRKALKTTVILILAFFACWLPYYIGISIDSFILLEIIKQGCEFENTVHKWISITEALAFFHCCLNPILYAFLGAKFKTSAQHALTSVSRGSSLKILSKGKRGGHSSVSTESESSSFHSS

Binder | IC50 (µg/ml), % inhibition of infected cells, GHOST CXCR4 / X4 HIV-1 LAI virus [µg/mL]
B1 | 0.08

molecular target: T1, human CXCR4 (hCXCR4), expressed on cells; assay: cell-based or functional assay; remark: another data set of the same source

Binder | IC50 (µg/ml), % inhibition of infected cells, HIV-1 92UG024 replication in human PBMC [µg/mL] | IC50 (µg/ml), % inhibition of infected cells, HIV-1 KON replication in human PBMC [µg/mL] | IC50 (µg/ml), % inhibition of infected cells, HIV-1 MN replication in human PBMC [µg/mL] | IC80 (µg/ml), % inhibition of infected cells, HIV-1 92UG024 replication in human PBMC [µg/mL] | IC80 (µg/ml), % inhibition of infected cells, HIV-1 KON replication in human PBMC [µg/mL] | IC80 (µg/ml), % inhibition of infected cells, HIV-1 MN replication in human PBMC [µg/mL] | IC90 (µg/ml), % inhibition of infected cells, HIV-1 92UG024 replication in human PBMC [µg/mL] | IC90 (µg/ml), % inhibition of infected cells, HIV-1 KON replication in human PBMC [µg/mL] | IC90 (µg/ml), % inhibition of infected cells, HIV-1 MN replication in human PBMC [µg/mL]
B2 | < 1.5 | 1.5 | < 1.5 | 3 | 10 | 1 | 15 | 20 | 15
B1 | 0.5 | 1 | < 1.5 | 3 | 8 | 1.5 | 10 | 15 | 10
B3 | 50 | 150 | 1 | 150 | > 150 | 150 | > 150 | > 150 | > 150

molecular target: T1, human CXCR4 (hCXCR4), expressed on cells; assay: cell-based or functional assay; remark: another data set of the same source

Binder | IC50 (µg/ml), % inhibition of infected cells, HIV-1 89.6 (dual X4/R5) replication in human PBMC [µg/mL] | IC80 (µg/ml), % inhibition of infected cells, HIV-1 89.6 (dual X4/R5) replication in human PBMC [µg/mL]
B2 | < 1.5 | 1.5
B1 | < 1.5 | 1.5
B3 | 20 | 150

molecular target: CXCR4 homodimer BRET pair [CXCR4/Rluc+CXCR4/YFP] on HEK293 cells (Renilla reniformis, UniProt P61073 1-352; P61073 1-352); assay: cell-based or functional assay
Sequence (P61073 whole entry, chain 1 of 2): as the sequence (P61073 whole entry) above
Sequence (P61073 whole entry, chain 2 of 2): as the sequence (P61073 whole entry) above

Binder | % inhibition of SDF-1-induced BRET increase [%]
B2 | 96
B1 | 69
B3 | 69
B4 | ~88
B5 | ~65
B6 | ~33
B7 | ~21
